Measured values: US7566447B2, “Biocides” (Iogenetics, LLC, priority 2003, dated 2009)

Key:
Caco-2 Host Cells = assay: Host cell toxicity assay by LDH release (CYTOTOX 96); format: cell-based, human; settings: control medium alone for 2 h, 0-5% non toxic, 5-10% mild toxicity
Experimental: Host cell toxicity assay was performed by measuring the release of lactate dehydrogenase (LDH) in the medium using a CYTOTOX 96 Non-Radioactive Cytotoxicity Assay kit (Promega, Madison, Wis.). Toxicity was therefore classified as non toxic 0-5% LDH release and mild toxicity 5-10% LDH release (ref).

Caco-2 cells = assay: Caco-2 cell viability by trypan blue dye exclusion; format: cell-based, human; settings: 24 hrs, uninoculated control cells 91 %
Experimental: (§1) This experiment describes the effects of PLA2 on sporozoite infectivity. Briefly, sporozoites were incubated in an isotonic saline solution (37° C., 30 min) with a range of concentrations of PLA2 isolated from honey bee venom (Sigma-Aldrich Corp., St. Louis, Mo., 1.5 U/μg protein). Control sporozoites were identically incubated in buffer containing concentration-matched BSA but no PLA2. Sporozoites were then washed in medium and inoculated onto replicate Caco-2 human intestinal epithelial cell monolayers. 24 h later, infection was quantified in test and control monolayers by immunofluorescence assay as described herein and the mean percent reduction of infection calculated. […] Percent viability of Caco-2 cells following exposure to PLA2-treated sporozoites (86%) was similar to that of uninoculated control cells (91 %) at 24 hrs, as determined by trypan blue dye exclusion. […] Through fusion of PLA2 to a monoclonal antibody with a high affinity for sporozoites, such as 1E10 or 4H9, lethal concentrations of biocide are deliverable to the sporozoite surface with relatively low amounts of biocide being used.

C. parvum sporozoites = assay: Effect of PLA2 on sporozoite infectivity for Caco-2 monolayers (immunofluorescence assay); format: cell-based, Cryptosporidium parvum
Experimental: as §1

Substance | % LDH release (Caco-2 Host Cells; 10 μg/ml) [%] | % LDH release (Caco-2 Host Cells; 100 μg/ml) [%] | Percent viability of Caco-2 cells following exposure to PLA2-treated sporozoites (Caco-2 cells) [%] | PLA2 concentration effective in neutralization (C. parvum sporozoites; preliminary data) [units/ml] | PLA2 concentration achieving highly significant reduction of sporozoite infectivity (C. parvum sporozoites; sporozoites incubated 37° C., 30 min, Caco-2 monolayers, 24 h, P<0.0005) [U/ml]
b-defensin 1 [βD1] | 0.8 ± 1.0 | – | – | – | –
cathelicidin | 1.6 ± 0.3 | 5.6 ± 0.9 | – | – | –
bee-venom phospholipase A2 [PLA2] | – | – | 86 | < 0.02 | 0.014
